According to US20150197564A1 (Regeneron, published 2015):

Assays:
[1] = biological target: T1, C-terminal biotin tagged Peptide 2 (human, C-terminal biotin tag); assay: OCTET RED label-free biosensor; biotinylated peptide on streptavidin-coated tips dipped into 1 uM antibody, binding monitored for 2.5 minutes
T1 construct: Immobilised on streptavidin biosensor tips; also called ANGPTL3 peptide
T1 peptide: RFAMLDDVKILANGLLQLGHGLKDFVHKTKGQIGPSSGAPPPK
Protocol: (§1) To assess the binding of the anti-ANGPTL3 antibody H4H1276S to peptides derived from the N-terminal coiled-coil region of ANGPTL3, a label-free biosensor binding assay was performed using OCTET® RED system (ForteDo, Inc.). […] The peptide-coated biosensor tips were then dipped into wells containing 1 μM of either anti-ANGPTL3 antibody H4H1276S or an isotype-matched negative control antibody, and binding was monitored for 2.5 minutes. It was observed that H4H1276S binds to the ANGPTL3 linear sequence defined by Peptide 2 but not the overlapping but distinct sequence defined by Peptide 3 (see also FIG. 1). The isotype control antibody also served as a positive control for loading of Peptide 1 (i.e., hANGPTL4 peptide) onto the biosensor, because this isotype control antibody specifically recognizes hANGPTL4.

[2] = biological target: T2, N-terminal biotin tagged Peptide 3 (human, N-terminal biotin tag); assay: as above
T2 construct: Immobilised on streptavidin biosensor tips; also called ANGPTL3 peptide
T2 peptide: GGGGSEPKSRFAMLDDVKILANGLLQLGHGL
Protocol: as §1

[3] = biological target: T3, N-terminal biotin tagged Peptide 2 (human, N-terminal biotin tag); assay: as above
T3 construct: Immobilised on streptavidin biosensor tips; also called ANGPTL3 peptide
T3 peptide: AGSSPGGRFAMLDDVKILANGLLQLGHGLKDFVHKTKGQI
Protocol: as §1

[4] = biological target: T4, C-terminal biotin tagged Peptide 3 (human, C-terminal biotin tag); assay: as above
T4 construct: Immobilised on streptavidin biosensor tips; also called ANGPTL3 peptide
T4 peptide: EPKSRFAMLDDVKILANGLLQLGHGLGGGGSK
Protocol: as §1

[5] = biological target: T5, N-terminal biotin tagged Peptide 1 (human, N-terminal biotin tag); assay: as above
T5 construct: Immobilised on streptavidin biosensor tips; also called control ANGPTL4 peptide; hANGPTL4 peptide
T5 peptide: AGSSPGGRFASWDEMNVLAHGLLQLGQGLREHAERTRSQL
Protocol: as §1

MfANGPTL3(17-170)-mmH = biological target: T6, MfANGPTL3(17-170)-mmH (Macaca fascicularis); assay: SPR Biacore, antigen captured, 25C, pH 7.4, HBS-EP
T6 construct: also called N-terminal coiled-coil domain of ANGPTL3 from Macaca fascicularis with myc-myc-hexahistidine tag; Monkey ANGPTL3 (17-170)-mmH
T6 chain: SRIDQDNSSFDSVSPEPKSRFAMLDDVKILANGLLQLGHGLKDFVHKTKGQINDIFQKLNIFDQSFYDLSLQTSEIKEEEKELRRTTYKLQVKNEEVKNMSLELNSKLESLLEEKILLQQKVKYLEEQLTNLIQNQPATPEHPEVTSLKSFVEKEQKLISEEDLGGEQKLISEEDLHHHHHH
Protocol: (§2) All kinetic binding experiments were performed at 25° C. or 37° C. on a BIACORE™ T200 label-free molecular interaction instrument (GE Healthcare) using a CM5 sensor chip. Briefly, an antigen capture surface was generated by covalently coupling either an anti-mouse IgG-specific antibody (anti-mFc; GE Healthcare; catalog #BR-1008-38) or an anti-pentahistidine-specific antibody (Qiagen; catalog #34660) to the surface of a CM5 sensor chip using a standard amine coupling method.

hANGPTL3(17-460)-His = biological target: T7, hANGPTL3(17-460)-His (human, UniProt Q9Y5C1 17-460); assay: SPR Biacore, antigen captured, 25C, pH 7.4, HBS-EP
T7 construct: Bought protein (R&D Systems); also called full-length mature human ANGPTL3 with a C-terminal decahistidine tag; Human ANGPTL3 (17-460)-His
T7 sequence: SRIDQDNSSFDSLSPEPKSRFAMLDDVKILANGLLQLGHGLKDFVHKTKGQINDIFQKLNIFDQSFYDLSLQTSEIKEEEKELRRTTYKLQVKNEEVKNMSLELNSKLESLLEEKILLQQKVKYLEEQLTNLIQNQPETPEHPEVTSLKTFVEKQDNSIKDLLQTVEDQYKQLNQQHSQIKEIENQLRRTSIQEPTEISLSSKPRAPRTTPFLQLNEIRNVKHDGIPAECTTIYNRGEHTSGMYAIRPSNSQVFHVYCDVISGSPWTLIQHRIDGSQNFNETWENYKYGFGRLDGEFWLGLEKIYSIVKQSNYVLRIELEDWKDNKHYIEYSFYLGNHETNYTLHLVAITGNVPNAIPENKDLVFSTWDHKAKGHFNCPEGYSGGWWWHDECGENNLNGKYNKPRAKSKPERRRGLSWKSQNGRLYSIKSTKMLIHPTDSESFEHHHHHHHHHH
Protocol: as §2

B1: H4H1276S (antibody, IgG4, V domains shown)
VH: EVQLVESGGGVIQPGGSLRLSCAASGFTFDDYAMNWVRQGPGKGLEWVSAISGDGGSTYYADSVKGRFTISRDNSKNSLYLQMNSLRAEDTAFFYCAKDLRNTIFGVVIPDAFDIWGQGTMVTVSS
VL: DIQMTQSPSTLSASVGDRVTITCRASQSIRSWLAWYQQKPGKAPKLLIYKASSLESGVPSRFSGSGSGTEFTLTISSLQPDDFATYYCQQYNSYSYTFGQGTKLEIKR
B1: binds [1]; no binding (tested: 1 uM) [2]; binds [3]. For the same binder, the binding result [4] was “no binding (tested: 1 uM)”, the binding result [5] was “no binding (tested: 1 uM)” and the Kd (MfANGPTL3(17-170)-mmH) was 0.396 nM. The koff (MfANGPTL3(17-170)-mmH) was 0.000535 s⁻¹, the kon (MfANGPTL3(17-170)-mmH) was 1.35e+06 M⁻¹ s⁻¹ and the t1/2 (MfANGPTL3(17-170)-mmH) was 21.6 min. The Kd (hANGPTL3(17-460)-His) was 0.491 nM, the koff (hANGPTL3(17-460)-His) was 0.000289 s⁻¹ and the kon (hANGPTL3(17-460)-His) was 588000 M⁻¹ s⁻¹. The t1/2 (hANGPTL3(17-460)-His) was 40 min.
